Measured values from patent US11033620B2, “Combination therapies targeting tumor-associated stroma or tumor cells and microtubules” (BIOMED VALLEY DISCOVERIES, INC., priority 2014, dated 2021).

System: H460 cells
Experiment: Efficacy of M830 in the H460 non-small cell lung carcinoma xenograft model
Format: in vivo, mouse
Conditions: combination partner Paclitaxel
Protocol: Animals were monitored for regression responses.
The statistical tests were not adjusted for multiple comparisons.
Cultured H460 cells were harvested during exponential growth and resuspended in phosphate buffered saline at a concentration of 1×10^8 cells/mL. 1.0×10^7 tumor cells were injected subcutaneously into the flank of athymic nude mice. Animals were euthanized when tumors reached the pre-determined volume endpoint of 2000 mm^3 or on the final day (Day 88), whichever came first.

B1: M830: TEM8 monoclonal antibody (hIgG1), VH SEQ ID NO:5, VL SEQ ID NO:6 (antibody, V domains shown)
VH: EVQLVESGGGVVQPGRSVRLSCAASGFTFSTYTMHWVRQAPGKGLEWVAIISNDGSNKYYADPVRGRFTISRDNSKNTLYLQMNSLRAEDTAVYYCVRGSSWYRGNWFDPWGQGTLVTVSS
VL: DIQMTQSPSSLSASVGDRVTIACRASQTISRYLNWYQQKPGKAPKLLIYAASSLQSGVSSRFSGSGSGTEFTLTISSLQPEDFATYFCQQTYSPPITFGQGTRLEIKR
modifications: TEM830 mAb VH; TEM830 mAb VL
regression (in % Tumor Reduction vs. Vehicle at Day 21 cell): −61%
